In paper PMC5716252, “Heterologous expression, purification and function of the extracellular domain of human RANK” (BMC Biotechnology, 2017) one finds Kd data, which are given here for 1 molecule.

This assay deals with T1, RANK-N, soluble form of the extracellular domain of human RANK (human, UniProt Q9Y6Q6 29-213, N-glycosylated (28 kDa band shifts to about 21 kDa with PNGase F); predicted sites Asn 105 and Asn 174, not verified).
T1 construct: Codon-optimised gene cloned into pPIC9K cut with XhoI and NotI; no tag is named; also called recombinant RANK-N
T1 sequence (looked up): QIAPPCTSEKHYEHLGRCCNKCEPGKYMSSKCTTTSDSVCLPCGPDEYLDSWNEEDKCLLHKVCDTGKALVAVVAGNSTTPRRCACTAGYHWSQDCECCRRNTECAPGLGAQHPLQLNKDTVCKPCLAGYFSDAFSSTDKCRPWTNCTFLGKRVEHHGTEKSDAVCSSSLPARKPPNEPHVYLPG
Description: SPR; Biacore T100; RANKL amine-coupled to a CM5 chip; RANK-N (32.5 to 1000 nM) injected at 30 μl/min, 25 °C, contact 210 s, dissociation 400 s; running buffer 3 mM EDTA, 150 mM NaCl, 10 mM HEPES, 0.05% Surfactant P20; steady-state responses fit to the Hill equation. Conditions: both partners purified. On the technique in general: In SPR one partner is held on a chip, and binding of the other changes the refractive index at the surface.

B1: RANKL (R&D Systems, 462-TEC-010/CF) (ligand, UniProt O35235 139-316, looked up)
chain: FSGAPAMMEGSWLDVAQRGKPEAQPFAHLTINAASIPSGSHKVTLSSWYHDRGWAKISNMTLSNGKLRVNQDGFYYLYANICFRHHETSGSVPTDYLQLMVYVVKTSIKIPSSHNLMKGGSTKNWSGNSEFHFYSINVGGFFKLRAGEEISIQVSNPSLLDPDQDATYFGAFKVQDID
notes: RANKL, recombinant protein bought from R&D Systems, catalogue 462-TEC-010/CF; As far as I recall, catalogue 462-TEC is R&D's recombinant mouse TRANCE/RANKL (soluble extracellular part, carrier-free); source: bought: R&D Systems (462-TEC-010/CF)
A word on the Kd: it is the concentration at which binding is half-saturated. Regarding B1, the Kd is 2620 nM.
